The text below walks through data of article PMC6411776 (2019).

Values joined by “and” are separate entries in the source; they are usually repeats but may differ in a detail not shown here. Identical values can stand only once.

Assay [1] has as its target Cep63 full-length (FL) (human). The assay can be described thus: co-IP; transfected HEK293 cells lysed in TBSN buffer [20 mM Tris-HCl (pH 8.0), 150 mM NaCl, 0.5% Nonidet P-40, 5 mM EGTA, 1.5 mM EDTA]; IP with anti-FLAG or anti-GFP antibody and protein A/G-agarose; immunoblotting.
Assay [2] addresses Cep63 P1(424–541), expressed in HEK293 cells. The assay can be described thus: co-immunoprecipitation (IP: FLAG) and immunoblotting. The following applies: transfected HEK293 cells; FLAG-Cep152 M4e co-expressed with GFP-Cep63 P1 and GFP-Cep152 M4e; blot α-GFP, P1 band; parent: 1.0. For orientation: A western blot detects proteins with antibodies after separation by electrophoresis.

Assay [3] concerns the target Cep152 M4e(1205–1272). The description is as above. The following applies: transfected HEK293 cells; FLAG-Cep152 M4e co-expressed with GFP-Cep63 P1 and GFP-Cep152 M4e; blot α-GFP, M4e band; parent: 1.0.
Assay [4] concerns the target Cep152 full-length FL(1–1654) (human). Nature of the assay: co-IP; IP from a mixture of lysates from HEK293 cells transfected separately with each construct; with or without provision of HA-Cep63.
The target of assay [5] is Cep63 full-length (FL). The assay can be described thus: co-immunoprecipitation (IP: FLAG) and immunoblotting. The following applies: transfected HEK293 cells; FLAG-Cep152 WT or 6A co-expressed with HA-Cep63; blot α-HA, long exposure; parent: 1.0.
The target in assay [6] is Cep152 M4e(1205–1272) (human). The assay can be described thus: co-IP; transfected HEK293 cells lysed in TBSN buffer [20 mM Tris-HCl (pH 8.0), 150 mM NaCl, 0.5% Nonidet P-40, 5 mM EGTA, 1.5 mM EDTA]; IP with anti-FLAG or anti-GFP antibody and protein A/G-agarose; immunoblotting.
For assay [7], the target named is Cep63 P1b(490–541) (human). The assay is described as above.
For assay [8], the target named is Cep152 M4d(1205–1295), from E. coli (human). The assay can be described thus: AUC; sedimentation velocity, complex at 10 μM; 4 °C; 20 mM Tris (pH 7.5), 500 mM NaCl, 10 mM 2-mercaptoethanol, 0.5 mM TCEP, 5% glycerol.
For assay [9], the target named is Cep152 M4e15(1205–1257), from E. coli (human). Nature of the assay: SEC-MALS; decreasing concentrations of the P1b5•M4e15 complex; biphasic change of MW, estimated Kd values of two steps of dissociation of the heterotetramer.
The target is the same in assay [10]. The assay can be described thus: AUC; sedimentation velocity of the P1b5•M4e15 complex, 95 to 530 μM; 20 °C; 20 mM Tris (pH 7.5), 100 mM NaCl, 0.5 mM TCEP.
Assay [11] deals with Cep152(1140–1295), from E. coli (human). Nature of the assay: SEC-MALS; Cep63(220–541)•Cep152(1140–1295) complex; Superdex 200 Increase 10/300 GL, 4 °C, 20 mM Tris-HCl (pH 8.0), 150 mM NaCl, 0.5 mM TCEP (the methods name the P1•M4d complex).
Assay [12] deals with T1, Cep152 (Homo sapiens, UniProt O94986).
T1 chain: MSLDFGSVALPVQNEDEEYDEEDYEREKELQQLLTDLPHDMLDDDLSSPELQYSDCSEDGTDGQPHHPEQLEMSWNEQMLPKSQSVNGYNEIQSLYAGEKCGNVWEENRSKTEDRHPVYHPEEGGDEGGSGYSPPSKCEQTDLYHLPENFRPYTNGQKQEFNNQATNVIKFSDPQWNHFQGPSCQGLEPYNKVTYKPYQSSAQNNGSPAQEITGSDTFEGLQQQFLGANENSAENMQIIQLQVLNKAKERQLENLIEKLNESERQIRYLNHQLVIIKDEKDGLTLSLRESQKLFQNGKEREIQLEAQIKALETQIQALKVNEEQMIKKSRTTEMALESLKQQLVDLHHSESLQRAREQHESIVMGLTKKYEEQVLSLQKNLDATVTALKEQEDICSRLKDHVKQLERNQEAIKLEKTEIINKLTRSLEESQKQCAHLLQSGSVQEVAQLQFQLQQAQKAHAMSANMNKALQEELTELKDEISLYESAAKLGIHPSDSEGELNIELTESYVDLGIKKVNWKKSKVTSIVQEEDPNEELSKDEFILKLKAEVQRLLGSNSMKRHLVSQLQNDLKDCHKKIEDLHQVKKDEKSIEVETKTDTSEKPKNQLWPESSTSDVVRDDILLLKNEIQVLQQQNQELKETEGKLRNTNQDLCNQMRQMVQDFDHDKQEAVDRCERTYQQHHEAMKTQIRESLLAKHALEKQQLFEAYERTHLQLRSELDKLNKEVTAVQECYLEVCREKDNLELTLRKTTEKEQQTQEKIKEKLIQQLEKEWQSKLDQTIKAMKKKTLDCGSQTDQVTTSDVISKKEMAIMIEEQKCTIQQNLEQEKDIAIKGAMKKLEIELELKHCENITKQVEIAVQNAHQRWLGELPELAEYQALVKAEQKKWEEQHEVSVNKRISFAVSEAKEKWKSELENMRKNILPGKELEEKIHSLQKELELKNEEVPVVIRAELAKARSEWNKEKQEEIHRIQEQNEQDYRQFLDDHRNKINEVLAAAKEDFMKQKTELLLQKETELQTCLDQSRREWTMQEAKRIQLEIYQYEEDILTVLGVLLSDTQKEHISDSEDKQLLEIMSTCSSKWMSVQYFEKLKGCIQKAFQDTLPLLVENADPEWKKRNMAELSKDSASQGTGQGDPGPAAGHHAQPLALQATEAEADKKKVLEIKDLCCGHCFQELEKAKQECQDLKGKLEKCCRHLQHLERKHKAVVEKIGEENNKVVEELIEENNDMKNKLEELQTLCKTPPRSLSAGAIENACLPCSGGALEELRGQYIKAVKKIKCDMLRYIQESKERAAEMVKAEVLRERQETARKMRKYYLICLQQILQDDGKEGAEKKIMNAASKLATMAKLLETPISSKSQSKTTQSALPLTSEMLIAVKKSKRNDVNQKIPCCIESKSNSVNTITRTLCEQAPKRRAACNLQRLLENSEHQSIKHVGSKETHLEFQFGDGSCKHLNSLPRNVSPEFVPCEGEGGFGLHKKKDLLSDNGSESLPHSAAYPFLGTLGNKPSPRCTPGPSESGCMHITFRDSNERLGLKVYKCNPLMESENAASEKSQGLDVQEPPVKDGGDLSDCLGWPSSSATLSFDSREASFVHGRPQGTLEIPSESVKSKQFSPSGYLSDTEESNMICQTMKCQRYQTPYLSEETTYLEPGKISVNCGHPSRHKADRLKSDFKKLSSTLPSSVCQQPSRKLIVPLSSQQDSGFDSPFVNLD
Nature of the assay: SEC-MALS. On the technique in general: SEC sorts molecules by how far they enter the pores of the column.

As for “Cep63 full-length (FL) (natural protein)”, the fold increase of the co-precipitate on provision of Cep152 in [1] worked out at 8 fold.
For Cep152 M4e(1205–1272) 5A, the ratio to parent in assay [2] amounted to 0.9; in [3] it was 0.7.
For the molecule Cep152 M4e(1205–1272) 11A, the ratio to parent in [2] and in assay [3] was 0 in each case.
Turning to “Cep152 M4e(1205–1272) L1207A; L1210A; Y1214A; I1221A; M1225A; Y1228A”, the values for the ratio to parent in assay [2] and in assay [3] were 0 and 0.1, respectively.
For “Cep152 full-length FL(1–1654) (natural protein)”, the fold increase of the co-precipitate on provision of Cep63 in assay [4] is 8 fold.
With “Cep152 full-length FL(1–1654) L1207A; L1210A; Y1214A; I1221A; M1225A; Y1228A”, the ratio to parent in assay [5] came to 0.1.
Consider “GFP-Cep63 P1b5(502–541) (domain or fragment)”, for which the loss of co-precipitation against the P1b–M4e pair in assay [6] is 40%.
As to “GFP-Cep152 M4e13(1205–1260) (domain or fragment)”, the loss of co-precipitation against the P1b–M4e pair in assay [7] stood at 40%.
“His-Cep63 P1(424–541), from E. coli (domain or fragment)” gave a stoichiometry N (Cep63:Cep152 (printed as 2:2)) in [8] of 1.
As for “His-Cep63 P1b5(502–541), from E. coli (pKM5500) (domain or fragment)”, the Kd of one of two steps of dissociation of the 2:2 heterotetramer (step not assigned) in assay [9] is 60 µM. For the same molecule, the stoichiometry N (Cep63:Cep152 (printed as 2:2)) in assay [10] amounted to 1.
In the case of “His-Cep63(220–541), from E. coli (domain or fragment)”, in assay [11], the stoichiometry N (Cep63:Cep152 (printed as 2:2)) is 1.

B1: Cep63 (protein)
chain: MEALLEGIQNRGHGGGFLTSCEAELQELMKQIDIMVAHKKSEWEGRTHALETCLKIREQELKSLRSQLDVTHKEVGMLHQQVEEHEKIKQEMTMEYKQELKKLHEELCILKRSYEKLQKKQMREFRGNTKNHREDRSEIERLTAKIEEFRQKSLDWEKQRLIYQQQVSSLEAQRKALAEQSEIIQAQLVNRKQKLESVELSSQSEIQHLSSKLERANDTICANELEIERLTMRVNDLVGTSMTVLQEQQQKEEKLRESEKLLEALQEEKRELKAALQSQENLIHEARIQKEKLQEKVKATNTQHAVEAIRPREESLAEKKYTSQGQGDLDSVLSQLNFTHTSEDLLQAEVTCLEGSLESVSATCKQLSQELMEKYEELKRMEAHNNEYKAEIKKLKEQILQGEQSYSSALEGMKMEISHLTQELHQRDITIASTKGSSSDMEKRLRAEMQKAEDKAVEHKEILDQLESLKLENRHLSEMVMKLELGLHEAKEISLADLQENYIEALNKLVSENQQLQKDLMNTKSQLEISTQMCKKQNDRIFKPTHSRTTEFKNTEFKPTHGQHRHDGIKTEHYKTDLHSPRGQASDSINPMSRVLSPLSPQISPCSSTRSLTSYSLCKTHSLPSALDTNEANFSDTMSESMNDQEEFISSCSLPVSPLGSIATRFLEEEELRSHHILERLDAHIEELKRESEKTVRQFTALK
The Kd is the free concentration of one partner at which half of the binding sites on the other are occupied at equilibrium, for simple one-to-one binding. The low end stands for higher affinity, the high end for lower affinity. On to B1, for which the Kd in [12] is ~60 µM and ~117 µM.
